Assay results from US20250051473A1 (IGM BIOSCIENCES, published 2025).
Where a chain is given by its changes, count along the chain named.

B1: IgM B-1 (bispecific antibody)
VH: QAYLQQSGAEVVRSGASVKMSCKAAGYTFTSYNMHWVKQTPGQGLEWIGYIYPGNGGTNYNQKFKGKATLTADTSSTTAYMQISSLTSEDSAVYFCARGASMITTGAWFAYWGQGTLVTVSA
VL: NIVLTQSPASLAVSLGQRATISCRASESLDTYGNSFMYWYQQKPGQPPKLLIYLASSLESGVPARFSGSGSRTDFTLTIDPVEADDAATYYCHQNHEDPWTFGGGTKLEIK
chain: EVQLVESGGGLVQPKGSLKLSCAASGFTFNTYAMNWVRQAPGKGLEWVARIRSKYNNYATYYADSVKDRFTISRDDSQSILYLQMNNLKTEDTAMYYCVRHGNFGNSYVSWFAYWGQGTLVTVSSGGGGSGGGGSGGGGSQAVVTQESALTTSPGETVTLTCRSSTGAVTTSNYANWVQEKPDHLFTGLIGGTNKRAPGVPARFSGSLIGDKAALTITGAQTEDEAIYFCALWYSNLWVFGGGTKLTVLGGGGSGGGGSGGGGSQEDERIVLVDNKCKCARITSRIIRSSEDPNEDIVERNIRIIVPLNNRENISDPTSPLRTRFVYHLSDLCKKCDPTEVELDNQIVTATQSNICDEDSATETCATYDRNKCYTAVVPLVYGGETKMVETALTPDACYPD
notes: Constant regions not specified; also called chimeric CD38 × CD3 IgM antibody of Clone B
B2: IgM F-1 (bispecific antibody)
VH: EVQLQQSGAEFVRPGASVKLSCTASGFNIKDSLMHWVKQRPEQGLEWIGWIDPEDDKTKYAPKFQDEATLTADTSSNTAYLHLSSLTSEDTAIYYCARRFLRGFAYWGQGTLVTVSA
VL: DIVMTQSPSSLSVSAGEKVTMSCKSSQSLLNSGNQKNYLAWYQQKPGQPPKLLIYGASTRESGVPDRFTGSGSGTDFTLTISSVQAEDLAVYYCQNDHSYPYTFGGGTKLEIK
chain: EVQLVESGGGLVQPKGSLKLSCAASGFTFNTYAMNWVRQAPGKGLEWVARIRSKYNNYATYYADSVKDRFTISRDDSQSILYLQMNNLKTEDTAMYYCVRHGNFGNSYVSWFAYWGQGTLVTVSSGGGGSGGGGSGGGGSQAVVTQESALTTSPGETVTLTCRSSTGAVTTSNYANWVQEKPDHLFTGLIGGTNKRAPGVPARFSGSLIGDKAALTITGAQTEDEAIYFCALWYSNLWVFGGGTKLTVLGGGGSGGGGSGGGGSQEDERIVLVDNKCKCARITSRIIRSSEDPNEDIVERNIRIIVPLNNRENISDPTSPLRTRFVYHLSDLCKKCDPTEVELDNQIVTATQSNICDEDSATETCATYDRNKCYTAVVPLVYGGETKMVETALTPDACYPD
notes: Constant regions not specified; also called chimeric CD38 × CD3 IgM antibody of Clone F
B3: IgM C-1 (bispecific antibody)
VH: EVQLQQSGTVLARPGASVKMSCKASGYTFTRYWMHWVKQRPGQDLEWIGGFYPGNSDTRYNQKFKDKAKLTAVTSTSTAYMELSSLTNEDSAVYYCTRGDRHDEGFAYWGQGTLVTVSA
VL: DIQMTQSPASLSASVGETVTITCRASGNIHNYLAWYQQKQGKSPQLLVYNAKTLPDGVPSRFSGSGSGTQYSLKINSLQPEDFGTYYCQNIWTNYTFGGGTKLEIK
chain: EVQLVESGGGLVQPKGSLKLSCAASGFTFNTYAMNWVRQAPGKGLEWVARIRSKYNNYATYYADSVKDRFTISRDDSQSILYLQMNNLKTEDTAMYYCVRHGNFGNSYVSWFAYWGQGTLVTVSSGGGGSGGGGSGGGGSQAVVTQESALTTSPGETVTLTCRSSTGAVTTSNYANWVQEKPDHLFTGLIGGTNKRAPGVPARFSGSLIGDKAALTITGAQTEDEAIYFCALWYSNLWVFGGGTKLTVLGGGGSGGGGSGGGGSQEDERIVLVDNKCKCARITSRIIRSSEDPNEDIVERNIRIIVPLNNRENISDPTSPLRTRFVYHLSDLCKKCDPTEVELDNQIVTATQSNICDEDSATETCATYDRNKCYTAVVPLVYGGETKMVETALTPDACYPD
notes: Constant regions not specified; also called chimeric CD38 × CD3 IgM antibody of Clone C
B4: IgM E-1 (bispecific antibody)
VH: QVQLQQSGAELVRPGTSVKMSCKAAGYTFTNHWIEWVKQRPGHGLEWIGDIFPGGGYTDYNEKFKGKATLTADTSSSTAYMQLSSLTSEDSAIYYCARGRDLAMDYWGQGTSVTVSS
VL: DIQMNQSPSSLSASLGDTITITCHASQNINVWLGWYQQKPGNIPKLLIYKASNLHTGVPSRFSGSGSGTGFTLTISSLQPEDIATYYCQQGQSYPYTFGGGTKLEIK
chain: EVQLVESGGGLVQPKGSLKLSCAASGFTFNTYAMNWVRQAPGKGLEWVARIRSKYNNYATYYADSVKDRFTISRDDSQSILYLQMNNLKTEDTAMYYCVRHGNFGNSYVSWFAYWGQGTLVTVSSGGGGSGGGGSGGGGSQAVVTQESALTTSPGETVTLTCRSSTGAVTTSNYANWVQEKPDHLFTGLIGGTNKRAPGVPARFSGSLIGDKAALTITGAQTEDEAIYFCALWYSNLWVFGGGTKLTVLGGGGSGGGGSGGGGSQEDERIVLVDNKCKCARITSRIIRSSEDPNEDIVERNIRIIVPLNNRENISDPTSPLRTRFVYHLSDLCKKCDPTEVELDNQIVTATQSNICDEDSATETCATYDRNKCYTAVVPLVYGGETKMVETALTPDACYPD
notes: Constant regions not specified; also called chimeric CD38 × CD3 IgM antibody of Clone E
B5: IgG B-1 (antibody, V domains shown)
VH: B1 VH
VL: B1 VL
notes: also called chimeric IgG of Clone B
B6: IgG B-2 (antibody, V domains shown)
VH: QVQLVQSGAEVKKPGSSVKVSCKASGYTFTSYNMHWVRQAPGQGLEWMGYIYPGNGGTNYNQKFKGRVTITADESTSTAYMELSSLRSEDTAVYYCARGASMITTGAWFAYWGQGTLVTVSS
VL: DIQMTQSPSSVSASVGDRVTITCRASESLDTYGNSFMYWYQQKPGKAPKLLIYLASSLESGVPSRFSGSGSGTDFTLTISSLQPEDFATYYCHQNHEDPWTFGQGTKVEIK
notes: also called humanized Clone B IgG (BVH1 / BVL1)
B7: IgG OKT10-2 (antibody, V domains shown)
VH: EVQLLESGGGLVQPGGSLRLSCAASGFDFSRSWMNWVRQAPGKGLEWVSEINPDSSTINYATSLKDRFTISRDNSKNTLYLQMNSLRAEDTAVYYCARYGNWFPYWGQGTLVTVSS
VL: DIQMTQSPSSLSASVGDRVTITCKASQNVDTNVAWYQQKPGKAPKALIYSASYRYSGVPSRFSGSGSGTDFTLTISSLQPEDFATYYCQQYDSYPLTFGQGTKVEIK
notes: also called humanized OKT10 IgG (OKT10VH2 / OKT10VL2)
B8: IgG OKT10-1 (antibody, V domains shown)
VH: EVKLQESGGGLVQPGGSLKLSCAASGFDFSRSWMNWVRQAPGKGLEWIGEINPDSSTINYTTSLKDKFIISRDNAKNTLYLQMTKVRSEDTALYYCARYGNWFPYWGQGTLVTVSA
VL: DIVMTQSPKIMPTSVGDRVSVTCKASQNVDTNVAWYQQKPGQSPKALIYSASYRYSGVPDRFTGSGSGTDFTLTITNVQSEDLAEYFCQQYDSYPLTFGAGTKLDLK
notes: also called parental OKT10 in IgG format
B9: IgG E-1 (antibody, V domains shown)
VH: B4 VH
VL: B4 VL
notes: also called chimeric IgG of Clone E
B10: IgG E-2 (antibody, V domains shown)
VH: QVQLVQSGAEVKKPGSSVKVSCKASGYTFTNHWIEWVRQAPGQGLEWMGDIFPGGGYTDYNEKFKGRVTITADESTSTAYMELSSLRSEDTAVYYCARGRDLAMDYWGQGTLVTVSS
VL: B4 VL with N5T, L15V, T18R, I19V, N42K, I43A, G70D, I83F, G100Q, L104V
notes: also called humanized Clone E IgG (EVH1 / EVL1)
B11: Clone B (antibody, V domains shown)
VH: B1 VH
VL: B1 VL
notes: Murine hybridoma antibody tested as supernatant; also called anti-CD38 murine hybridoma clone B
B12: Clone G (antibody, V domains shown)
VH: QVQLQQPGPELVKPVASVKISCKTSDYAFSSSWMNWVKQRPGKGLEWIGWIYPGDGDTNYNGKFKGKATLTADKSSSTAYMQLSSLTSEDSAVYFCARGRWGMDNWGQGTSVTVSS
VL: DIVMTQSHKFMSTSVGDRVSITCKASQNVVTAVAWYQQKPGQSPKLLIYWASSRHTGVPDRFTGSGSGTDFTLTISNVQSEDLADYFCQQYSNYPFTFGSGTKLEIK
notes: Murine hybridoma antibody tested as supernatant; also called anti-CD38 murine hybridoma clone G
B13: Clone H (antibody, V domains shown)
VH: QVPLHQSGPELIKPGASLKISCKASDSAFNNSWMNWVRQRPGKGLEWIGWIYPGDDDTKYNGKFMGKATLTADKSSGTAYMQLSSLTSEDSAVYFCARGRWGMDYWGQGTSVTVSS
VL: B12 VL with S7F, K9N, S20N, T22N, S53T
notes: Murine hybridoma antibody tested as supernatant; also called anti-CD38 murine hybridoma clone H
B14: Clone I (antibody, V domains shown)
VH: B13 VH with H5Q, I12V, L18V, M34T, N35I
VL: B12 VL with H8R, T22S, S53T, K103E
notes: Murine hybridoma antibody tested as supernatant; also called anti-CD38 murine hybridoma clone I
B15: Clone F (antibody, V domains shown)
VH: B2 VH
VL: B2 VL
notes: Murine hybridoma antibody tested as supernatant; also called anti-CD38 murine hybridoma clone F
B16: Clone D (antibody, V domains shown)
VH: QIQLVQSGPELKKPGETVKISCKASGYTFTNYGMNWVKQAPGEDLKWMGWLNTNTGEPTYAEEFKGRFAFSLETSASTAYLQINNLRNEDTATYFCARWYYGSSDNSYAMDYWGQGTSVTVSS
VL: ETIVTQFPASLSMAIGEKVTIRCITSTDIDDDMNWYQQRPGEPPKLLISEGNTLRPGVPSRFSSSGYGTDFVFTFENMLSEDVADYYCLQSDSLPYTVGGGTRLEIK
notes: Murine hybridoma antibody tested as supernatant; also called anti-CD38 murine hybridoma clone D
B17: Clone C (antibody, V domains shown)
VH: B3 VH
VL: B3 VL
notes: Murine hybridoma antibody tested as supernatant; also called anti-CD38 murine hybridoma clone C
B18: Clone A (antibody, V domains shown)
VH: QVQLQQSGAELVKPGASVKISCKASGYTFSNYWIEWVKQRPGLGLEWIGDILPGSGTTNYNEKFKGKATFTADTSSNTAYMQLSSLTSEDSAVYYCAGYGNYLWFTYWGQGTLVTVSA
VL: B4 VL with G34S
notes: Murine hybridoma antibody tested as supernatant; also called anti-CD38 murine hybridoma clone A
B19: Clone E (antibody, V domains shown)
VH: B4 VH
VL: B4 VL
notes: Murine hybridoma antibody tested as supernatant; also called anti-CD38 murine hybridoma clone E

target: T1, recombinant human CD38 extracellular domain protein (ACROBiosystems, Cat #CD8-H5224) (human, UniProt P28907 43-300); assay: ELISA, plate coated with recombinant human CD38 extracellular domain, HRP anti-human kappa detection, chemiluminescence (RLU)
T1 construct: Bought protein; also called recombinant human CD38 protein
Procedure: (§1) Plates were then washed five times with 0.05% phosphate buffered saline (PBS)-polysorbate sold under the trademark TWEEN® (PBS-TWEEN®) and blocked with 2% bovine serum albumin (BSA)-PBS. After blocking, 100 μL of serial dilutions of chimeric CD38×CD3 IgM antibodies, standards, and controls were added to each well of the plates and incubated at room temperature for 2 hours. […] PRISM® using a 4-parameter logistic model.

Q: Does B1 bind?
A: Result: binds

Q: Does B2 bind?
A: Result: binds

Q: Does B3 bind?
A: Result: binds

Q: Does B4 bind?
A: Result: binds

target: T2, recombinant cynomolgus monkey CD38 extracellular domain protein (ACROBiosystems) (cynomolgus monkey, UniProt Q5VAN0 44-301); assay: ELISA, plate coated with recombinant cynomolgus CD38 extracellular domain, HRP anti-human kappa detection, chemiluminescence (RLU)
T2 construct: Bought extracellular domain protein; also called cyno CD38; recombinant cyno CD38
Procedure: as §1

Q: Does B1 bind?
A: Result: binds

Q: Does B2 bind?
A: Result: binds

Q: Does B3 bind?
A: Result: binds

Q: Does B4 bind?
A: Result: binds

target: T1, recombinant human CD38 extracellular …; assay: BLI (Octet 384), IgG on anti-human IgG Fc biosensors, soluble human CD38 as analyte, 1:1 global fit
Procedure: Samples and buffer were applied in 384-well plates. After an initial baseline calibration for 60 seconds, sensors were loaded with 20 nM of IgG antibodies. The biosensors were dipped into buffer to reach a baseline value and incubated for 600 seconds with 2-fold serial diluted human CD38 protein starting at 100 nM for association, followed by 900 seconds in buffer for dissociation.

Q: Which Kd does the source give for B5 here?
A: Its Kd is 0.526 nM.

Q: What about the koff of the same binder?
A: The koff was 7.32e-05 s⁻¹.

Q: And the kon?
A: The kon was 139000 M⁻¹ s⁻¹.

Q: Which results are given for B6?
A: Kd: 0.8 nM; koff: 0.000225 s⁻¹; kon: 281000 M⁻¹ s⁻¹

Q: For B7, which Kd is on record?
A: The Kd was 28.3 nM.

Q: And the koff?
A: Its koff is 0.0113 s⁻¹.

Q: And the kon?
A: Its kon is 400000 M⁻¹ s⁻¹.

Q: For B8, which Kd is on record?
A: The Kd was 5.97 nM.

Q: And the koff?
A: Its koff is 0.00206 s⁻¹.

Q: What about the kon of the same binder?
A: Its kon is 344000 M⁻¹ s⁻¹.

Q: B9 was tested. Which Kd did it give?
A: The Kd was 1.99 nM.

Q: And the koff?
A: Its koff is 0.00117 s⁻¹.

Q: What about the kon of the same binder?
A: Its kon is 587000 M⁻¹ s⁻¹.

Q: B10 was tested. Which Kd did it give?
A: Its Kd is 7.62 nM.

Q: And the koff?
A: Its koff is 0.00378 s⁻¹.

Q: And the kon?
A: Its kon is 496000 M⁻¹ s⁻¹.

target: T2, recombinant cynomolgus monkey CD38 …; assay: ELISA screen of hybridoma supernatants on recombinant CD38

Q: Does B11 bind?
A: Result: binds

Q: Does B12 bind?
A: Result: binds

Q: Does B13 bind?
A: Result: binds

Q: Does B14 bind?
A: Result: binds

Q: Does B15 bind?
A: Result: binds

Q: Does B16 bind?
A: Result: binds

Q: Does B17 bind?
A: Result: binds

Q: Does B18 bind?
A: Result: binds

Q: Does B19 bind?
A: Result: binds

target: T1, recombinant human CD38 extracellular …; assay: as above

Q: Does B12 bind?
A: Result: binds

Q: Does B13 bind?
A: Result: binds

Q: Does B14 bind?
A: Result: binds

Q: Does B15 bind?
A: Result: binds

Q: Does B16 bind?
A: Result: binds

Q: Does B17 bind?
A: Result: binds

Q: Does B18 bind?
A: Result: binds

target: cell surface human CD38 on NCI-H929 myeloma cells (human, UniProt P28907 1-300); assay: flow cytometry on NCI-H929 cells, AF488 anti-human kappa secondary antibody, median FL-1
Procedure: In addition, binding to cell surface human CD38 was assessed using the myeloma cell line, NCI-H929 (H929), and flow cytometry analysis. In brief, H929 cells were stained with serial dilutions of chimeric CD38×CD3 IgM antibodies for 30 minutes at 4° C. […] Cells were then washed twice, resuspended in fluorescence-activated cell sorting (FACS) stain buffer, and measured using flow cytometry.

Q: Does B1 bind?
A: Result: binds

Q: Does B2 bind?
A: Result: binds

Q: Does B3 bind?
A: Result: binds

Q: Does B4 bind?
A: Result: binds
